These results are taken from PMC10318062 (Nature Communications, 2023).

The labels stand for the following.
B1: LY-CoV1404 (sdFab) (Fab, V domains shown)
VH: QITLKESGPTLVKPTQTLTLTCTFSGFSLSISGVGVGWLRQPPGKALEWLALIYWDDDKRYSPSLKSRLTISKDTSKNQVVLKMTNIDPVDTATYYCAHHSISTIFDHWGQGTLVTVSS
VL: QSALTQPASVSGSPGQSITISCTATSSDVGDYNYVSWYQQHPGKAPKLMIFEVSDRPSGISNRFSGSKSGNTASLTISGLQAEDEADYYCSSYTTSSAVFGGGTKLTVL
B2: REGN10987 (sdFab) (Fab, V domains shown)
VH: QVQLVESGGGVVQPGRSLRLSCAASGFTFSNYAMYWVRQAPGKGLEWVAVISYDGSNKYYADSVKGRFTISRDNSKNTLYLQMNSLRTEDTAVYYCASGSDYGDYLLVYWGQGTLVTVSS
VL: QSALTQPASVSGSPGQSITISCTGTSSDVGGYNYVSWYQQHPGKAPKLMIYDVSKRPSGVSNRFSGSKSGNTASLTISGLQSEDEADYYCNSLTSISTWVFGGGTKLTVL
B3: AZD8895 (sdFab) (Fab, V domains shown)
VH: EVQLVQSGPEVKKPGTSVKVSCKASGFTFMSSAVQWVRQARGQRLEWIGWIVIGSGNTNYAQKFQERVTITRDMSTSTAYMELSSLRSEDTAVYYCAAPYCSSISCNDGFDIWGQGTMVTVSS
VL: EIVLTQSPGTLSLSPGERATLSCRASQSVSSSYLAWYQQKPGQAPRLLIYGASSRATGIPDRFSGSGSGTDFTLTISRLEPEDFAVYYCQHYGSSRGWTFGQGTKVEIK
B4: LY-CoV555 (sdFab) (Fab, V domains shown)
VH: QVQLVQSGAEVKKPGSSVKVSCKASGGTFSNYAISWVRQAPGQGLEWMGRIIPILGIANYAQKFQGRVTITADKSTSTAYMELSSLRSEDTAVYYCARGYYEARHYYYYYAMDVWGQGTAVTVSS
VL: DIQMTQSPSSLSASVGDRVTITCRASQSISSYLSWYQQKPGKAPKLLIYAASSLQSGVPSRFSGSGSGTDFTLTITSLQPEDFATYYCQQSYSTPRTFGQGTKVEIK
B5: REGN10933 (sdFab) (Fab, V domains shown)
VH: QVQLVESGGGLVKPGGSLRLSCAASGFTFSDYYMSWIRQAPGKGLEWVSYITYSGSTIYYADSVKGRFTISRDNAKSSLYLQMNSLRAEDTAVYYCARDRGTTMVPFDYWGQGTLVTVSS
VL: DIQMTQSPSSLSASVGDRVTITCQASQDITNYLNWYQQKPGKAPKLLIYAASNLETGVPSRFSGSGSGTDFTFTISGLQPEDIATYYCQQYDNLPLTFGGGTKVEIK
B6: CB6 (sdFab) (Fab, V domains shown)
VH: EVQLVESGGGLVQPGGSLRLSCAASGFTVSSNYMSWVRQAPGKGLEWVSVIYSGGSTFYADSVKGRFTISRDNSMNTLFLQMNSLRAEDTAVYYCARVLPMYGDYLDYWGQGTLVTVSS
VL: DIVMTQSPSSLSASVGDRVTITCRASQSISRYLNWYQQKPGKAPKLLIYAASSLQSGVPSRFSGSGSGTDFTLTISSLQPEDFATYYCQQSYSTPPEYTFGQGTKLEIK

This test concerns the target SARS-CoV-2 hexaproline stabilized pre-fusion spike glycoprotein (S6P) (SARS-CoV-2, ancestral (Wuhan-Hu-1 …, UniProt P0DTC2, stabilised)). As to the kind of experiment: AlphaScreen or HTRF. To be noted: one partner purified.
For B1, the binding result is “binds”.
Regarding B2, the binding result is “binds”.
Then B3, with “binds”.
For B4, the binding result is “binds”.
As to B5, the binding result is given as “binds”.
Then B6, with “binds”.
